Test results published in patent US20240059799A1 (Pfizer, published 2024).

How the values were obtained:
human IL-23 [1] = target: T1, human IL-23 (human, UniProt P29460 23-328; Q9NPF7 20-189); experiment: SPR, bispecific held on captured biotinylated human TL1A, then human IL-23 injected (simultaneous binding)
T1 construct: Heterodimer p40/p19; Whole entries as named; also called IL-23 Human; recombinant human IL-23
T1 sequence 1: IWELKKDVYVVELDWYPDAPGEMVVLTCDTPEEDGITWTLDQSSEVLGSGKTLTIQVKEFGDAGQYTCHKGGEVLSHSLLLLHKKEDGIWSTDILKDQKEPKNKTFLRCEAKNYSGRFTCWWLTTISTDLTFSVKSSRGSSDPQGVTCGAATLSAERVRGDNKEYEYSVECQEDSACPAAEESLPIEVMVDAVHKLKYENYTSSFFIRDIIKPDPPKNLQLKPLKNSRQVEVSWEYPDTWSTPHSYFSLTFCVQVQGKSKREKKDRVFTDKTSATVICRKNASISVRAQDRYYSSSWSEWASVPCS
T1 sequence 2: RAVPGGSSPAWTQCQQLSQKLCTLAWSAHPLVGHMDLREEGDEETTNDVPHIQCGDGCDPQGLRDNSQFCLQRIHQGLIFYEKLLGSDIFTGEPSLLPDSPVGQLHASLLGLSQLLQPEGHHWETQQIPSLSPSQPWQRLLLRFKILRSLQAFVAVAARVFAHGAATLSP
Procedure: SPR was used to determine if the bispecific variants could simultaneously bind TL1A and IL-23, containing the p40 domain. For this analysis, a semi-quantitative SPR method was developed using Biacore™ T200 (GE Healthcare) instrumentation. […] The bispecific was injected for 90 seconds at a concentration of 20 μg/m L, a flow rate of 50 μL/minute, and captured to a level of approximately 40-150 RU. Next, recombinant human IL-23 was injected for 60 seconds and a flow rate of 50 μL/minute at a concentration range of 0.37-15 nM.

human IL-23 [2] = target: T1, human IL-23; experiment: SPR 37 C, bispecific captured by anti-human Fc, human IL-23 injected
Procedure: (§1) SPR was utilized to determine if the affinity constants of each arm of the bispecific variants binding human IL-23, containing the p40 subunit, and human TL1A were the same for each bispecific approach. For the analysis of the p40 binding arm, kinetic assays were conducted at 37° C. using a collection rate of 10 Hz on a Biacore™ 8 K+ instrument (GE Healthcare). An anti-human IgG antibody (anti-human Fc, GE Healthcare, 22-0648-88) was amine coupled to all four flow cells of a carboxymethylated dextran coated sensor chip (GE Healthcare,) using the manufacturer's recommended protocol. […] For the analysis of the TL1A binding arm, kinetic assays were conducted at 37° C. using a collection rate of 10 Hz on a Biacore™ T200 instrument (GE Healthcare).

recombinant human TL1A [3] = target: T2, recombinant human TL1A (human, UniProt O95150 71-251); experiment: SPR 37 C, biotinylated human TL1A captured, bispecific injected
T2 construct: Homotrimeric cytokine; biotinylated with Sulfo-NHS-biotin where captured for SPR, coated unlabelled in ELISA, soluble in bioassays; also called TNFSF15
T2 chain: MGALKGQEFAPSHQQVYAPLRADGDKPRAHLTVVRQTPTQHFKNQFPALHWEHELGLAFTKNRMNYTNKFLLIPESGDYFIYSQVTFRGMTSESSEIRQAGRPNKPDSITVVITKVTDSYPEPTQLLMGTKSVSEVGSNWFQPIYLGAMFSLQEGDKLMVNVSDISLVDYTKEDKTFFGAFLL
Procedure: as §1

recombinant human TL1A [4] = target: T3, recombinant human TL1A (human, UniProt O95150 71-251); experiment: cell-based or functional assay
T3 chain: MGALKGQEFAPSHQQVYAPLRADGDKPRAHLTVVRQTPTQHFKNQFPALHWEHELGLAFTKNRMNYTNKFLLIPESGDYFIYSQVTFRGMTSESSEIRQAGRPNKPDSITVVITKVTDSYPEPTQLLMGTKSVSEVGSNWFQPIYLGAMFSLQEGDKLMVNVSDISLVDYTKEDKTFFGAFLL

B1: p40TL1A-0033 (bispecific antibody, human IgG1, kappa)
heavy: EVQLVQSGAEVKKPGESLKISCKGSGYSFTTYWLGWVRQMPGKGLDWIGIMSPVDSDIRYSPSFQGQVTMSVDKSITTAYLQWNSLKASDTAMYYCARRRPGQGYFDFWGQGTLVTVSSASTKGPSVFPLAPSSKSTSGGTAALGCLVKDYFPEPVTVSWNSGALTSGVHTFPAVLQSSGLYSLSSVVTVPSSSLGTQTYICNVNHKPSNTKVDKKVEPKSCDKTHTCPPCPAPEAAGAPSVFLFPPKPKDTLMISRTPEVTCVVVDVSHEDPEVKFNWYVDGVEVHNAKTKPREEQYNSTYRVVSVLTVLHQDWLNGKEYKCKVSNKALPAPIEKTISKAKGQPREPQVCTLPPSREEMTKNQVSLWCLVKGFYPSDIAVEWESNGQPENNYKTTPPVLDSDGSFFLYSKLTVDKSRWQQGNVFSCSVLHEALHSHYTQKSLSLSPGK
light: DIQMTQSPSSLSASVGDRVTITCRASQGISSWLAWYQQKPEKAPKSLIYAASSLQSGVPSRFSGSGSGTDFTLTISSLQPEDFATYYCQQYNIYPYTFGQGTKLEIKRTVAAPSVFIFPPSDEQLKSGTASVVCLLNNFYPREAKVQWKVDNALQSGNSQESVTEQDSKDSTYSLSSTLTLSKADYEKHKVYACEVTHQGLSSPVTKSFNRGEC
chain 1: not shown
chain 2: QVQLVQSGAEVKKPGASVKVSCKASGYDYTYYGISWVRQAPGQGLEWMGWISTYNTGTHYAPSLQGRVTMTTDTSTSTAYMELRSLRSDDTAVYYCARESYYGSGAFRGGMDVWGQGTTVTVSSASTKGPSVFPLAPSSKSTSGGTAALGCLVKDYFPEPVTVSWNSGALTSGVHTFPAVLQSSGLYSLSSVVTVPSSSLGTQTYICNVNHKPSNTKVDKKVEPKSC
notes: single cell, KiH, modified Fd, LS
Kd (human IL-23 [1]): 0.0791 nM | koff (human IL-23 [1]): 0.000519 s⁻¹ | kon (human IL-23 [1]): 6.56e+06 M⁻¹ s⁻¹ | Kd (human IL-23 [2]): 0.557 nM | koff (human IL-23 [2]): 0.00115 s⁻¹ | kon (human IL-23 [2]): 2.07e+06 M⁻¹ s⁻¹ | Kd (recombinant human TL1A [3]): 0.253 nM | koff (recombinant human TL1A [3]): 5.52e-05 s⁻¹ | kon (recombinant human TL1A [3]): 218000 M⁻¹ s⁻¹

B2: TL1A-0372 monovalent bispecific antibody (bispecific antibody, human IgG1, kappa)
heavy 1: QVQLVQSGAEVKKPGASVKVSCKASGYDYTYYGISWVRQAPGQGLEWMGWISTYNTGTHYAPSLQGRVTMTTDTSTSTAYMELRSLRSDDTAVYYCARESYYGSGAFRGGMDVWGQGTTVTVSSASTKGPSVFPLAPSSKSTSGGTAALGCLVKDYFPEPVTVSWNSGALTSGVHTFPAVLQSSGLYSLSSVVTVPSSSLGTQTYICNVNHKPSNTKVDKKVEPKSCDKTHTCPPCPAPEAAGAPSVFLFPPKPKDTLMISRTPEVTCVVVDVSHEDPEVKFNWYVDGVEVHNAKTKPREEQYNSTYRVVSVLTVLHQDWLNGKEYKCKVSNKALPAPIEKTISKAKGQPREPQVCTLPPSREEMTKNQVSLWCLVKGFYPSDIAVEWESNGQPENNYKTTPPVLDSDGSFFLYSKLTVDKSRWQQGNVFSCSVLHEALHSHYTQKSLSLSPGK
heavy 2: not shown
light: not shown
NF-κB assay IC50 (TF-1 reporter cells) (recombinant human TL1A [4]): 0.102 nM | NF-κB assay, Bioactivity relative to TL1A-0372 (recombinant human TL1A [4]): 1 fold

B3: p40TL1A-0032 (bispecific antibody)
heavy 1: EVQLVQSGAEVKKPGESLKISCKGSGYSFTTYWLGWVRQMPGKGLDWIGIMSPVDSDIRYSPSFQGQVTMSVDKSITTAYLQWNSLKASDTAMYYCARRRPGQGYFDFWGQGTLVTVSSASTKGPSVFPKAPSSKSTSGGTAALGCLVKDYFPEPVTVSWNSGALTSGVHTFPAVLQSSGLYSLSSSVTVPSSSLGTQTYICNVNHKPSNTKVDKKVEPKSCDKTHTCPPCPAPEAAGAPSVFLFPPKPKDTLMISRTPEVTCVVVDVSHEDPEVKFNWYVDGVEVHNAKTKPREEQYNSTYRVVSVLTVLHQDWLNGKEYKCKVSNKALPAPIEKTISKAKGQPREPQVCTLPPSREEMTKNQVSLWCLVKGFYPSDIAVEWESNGQPENNYKTTPPVLDSDGSFFLYSKLTVDKSRWQQGNVFSCSVLHEALHSHYTQKSLSLSPGK
light 1: DIQMTQSPSSLSASVGDRVTITCRASQGISSWLAWYQQKPEKAPKSLIYAASSLQSGVPSRFSGSGSGTDFTLTISSLQPEDFATYYCQQYNIYPYTFGQGTKLEIKRTVAAPSVFIFPPSDEQLKSGTASVSCLLNNFYPREAKVQWKVDNALQSGNSQESVTEQDSKDSTYSLDSTLTLSKADYEKHKVYACEVTHQGLSSPVTKSFNRGEC
heavy 2: QVQLVQSGAEVKKPGASVKVSCKASGYDYTYYGISWVRQAPGQGLEWMGWISTYNTGTHYAPSLQGRVTMTTDTSTSTAYMELRSLRSDDTAVYYCARESYYGSGAFRGGMDVWGQGTTVTVSSASTKGPSVFPEAPSSKSTSGGTAALGCLVKDYFPEPVTVSWNSGALTSGVHTFPAVLQSSGLYSLGSVVTVPSSSLGTQTYICNVNHKPSNTKVDKKVEPKSCDKTHTCPPCPAPEAAGAPSVFLFPPKPKDTLMISRTPEVTCVVVDVSHEDPEVKFNWYVDGVEVHNAKTKPREEQYNSTYRVVSVLTVLHQDWLNGKEYKCKVSNKALPAPIEKTISKAKGQPREPQVYTLPPCREEMTKNQVSLSCAVKGFYPSDIAVEWESNGQPENNYKTTPPVLDSDGSFFLVSKLTVDKSRWQQGNVFSCSVLHEALHSHYTQKSLSLSPGK
light 2: not shown
notes: single cell, KiH, S1-S1rev, LS
Kd (human IL-23 [1]): 0.0788 nM | koff (human IL-23 [1]): 0.000546 s⁻¹ | kon (human IL-23 [1]): 6.93e+06 M⁻¹ s⁻¹ | Kd (human IL-23 [2]): 0.567 nM | koff (human IL-23 [2]): 0.00109 s⁻¹ | kon (human IL-23 [2]): 1.92e+06 M⁻¹ s⁻¹ | Kd (recombinant human TL1A [3]): 0.254 nM | koff (recombinant human TL1A [3]): 6.15e-05 s⁻¹ | kon (recombinant human TL1A [3]): 243000 M⁻¹ s⁻¹
